Test results published in patent US7510715 (US Dept. of Health and Human Services, dated 2009).

B3: human CCR5 on cells (CEM.NKR-CCR5 transfectants; PM1 T cells; PBMCs; macrophages) (receptor)
chain: not shown
notes: whole, on cells; also called hCCR5

Assays:
[1] = molecular target: B3; experiment: saturation binding of 125I-labeled human MIP-1β to CEM.NKR-CCR5 cells, 90 minutes at 4° C.
[2] = molecular target: B3; experiment: saturation binding of 125I-C-18 to CEM.NKR-CCR5 cells, 90 minutes at 4° C.
human cyclophilin A = molecular target: T1, human cyclophilin A (human, UniProt P62937 1-165); experiment: competition with 125I-C-18 on CEM.NKR.CCR5 cells (method in paragraph 111)
T1 construct: also called recombinant human cyclophilin
T1 sequence (P62937 whole entry): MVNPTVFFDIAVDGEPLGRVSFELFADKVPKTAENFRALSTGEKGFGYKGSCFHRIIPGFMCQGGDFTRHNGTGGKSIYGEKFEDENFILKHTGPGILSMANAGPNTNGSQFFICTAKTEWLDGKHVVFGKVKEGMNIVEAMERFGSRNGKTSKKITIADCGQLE

B1: human macrophage inflammatory protein 1β (MIP-1β) (ligand, UniProt P13236 24-92, looked up)
chain: APMGSDPPTACCFSYTARKLPRNFVVDYYETSSLCSQPAVVFQTKRSKQVCADPSESWVQEYVYDLELN
notes: also called MIP-1B; human MIP-1 B
B1 showed a Kd [1] of 0.559 nM.

B2: Toxoplasma gondii cyclophilin-18 (C-18), recombinant (ligand)
chain: not shown
B2 showed a Kd [2] of 3.65 nM.

B3: no binding (human cyclophilin A).
